The target of series [1] is T1, NF-kB p50 (UniProt P19838 P19838:1-433). Put plainly: array fluorescence immunoassay, 100 ng/mL. The following applies: tags: Promega; chain copies: 2. Here is the method:
(§1) After washing twice with the washing buffer, NFκB diluted at 100 ng/mL with the binding buffer was added, and shaken at room temperature for one hour. After washing three times with the washing buffer, anti-NFκB antibody (RCK) diluted 100 times with antibody diluting buffer was added, and shaken at room temperature for one hour. After washing twice with the washing buffer, FITC-labeled anti-rabbit IgG antibody diluted 50 times with the antibody diluting buffer was added, and shaken at room temperature for one hour. After washing twice with the washing buffer, at a fluorescence wavelength of 535 nm based on Fluorescence of FITC excited with laser at a wavelength of 473 nm, fluorescent intensity was detected by CRBIO II microarray scanner.
The oligonucleotides comprising 9 element sequences, PRD II, AP1, p53, VDRE, RARE, CRE, TRE, GRE and ERE which were not labeled with FITC were similarly immobilized on the DLC chip. NFκB (100 ng/mL) was added to the DLC chip on which these 9 transcription factors had been arrayed, and detected by fluorescence immunoassay. As a result, the fluorescence was detected only from the oligonucleotide comprising PRD II which was the NFκB recognition sequence. […] Therefore, it is possible to construct the system in which multiple transcription factors are simultaneously detected in a sample in a small amount by combining antibodies which specifically recognize the transcription factors which is bound to the other element sequences.

For series [2], the target named is T1, NF-kB p50. Put plainly: array fluorescence immunoassay, 100 ng/mL; in ELISA about 30-50% background color before blocking optimisation. The following applies: tags: Promega; chain copies: 2. Here is the method: as §1
The oligonucleotides comprising 9 element sequences, PRD II, AP1, p53, VDRE, RARE, CRE, TRE, GRE and ERE which were not labeled with FITC were similarly immobilized on the DLC chip. NFκB (100 ng/mL) was added to the DLC chip on which these 9 transcription factors had been arrayed, and detected by fluorescence immunoassay. As a result, the fluorescence was detected only from the oligonucleotide comprising PRD II which was the NFκB recognition sequence. […]

The next series deals with T2, Vitamin D receptor (VDR) (UniProt P11473 P11473:1-427).
T2 sequence: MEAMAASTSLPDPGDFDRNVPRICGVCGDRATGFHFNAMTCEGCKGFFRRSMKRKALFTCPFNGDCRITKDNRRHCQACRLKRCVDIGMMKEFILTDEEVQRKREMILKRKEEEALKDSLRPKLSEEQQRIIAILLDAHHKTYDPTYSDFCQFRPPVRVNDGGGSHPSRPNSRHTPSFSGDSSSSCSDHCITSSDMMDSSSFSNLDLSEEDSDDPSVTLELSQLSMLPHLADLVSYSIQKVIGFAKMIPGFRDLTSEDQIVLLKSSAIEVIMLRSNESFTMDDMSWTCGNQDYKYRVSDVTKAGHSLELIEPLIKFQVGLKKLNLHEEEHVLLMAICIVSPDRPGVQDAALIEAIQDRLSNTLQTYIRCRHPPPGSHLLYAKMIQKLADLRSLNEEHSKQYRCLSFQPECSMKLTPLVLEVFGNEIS
Put plainly: 500 fmol/chip; captured VDR detected by on-chip trypsin digestion and MALDI-TOF MS. Here is the method:
Next, the on-chip digestion of 500 fmol/chip of vitamin D receptor was performed using trypsin (1 μg/mL) on the chip on which the element sequence VDRE which was the recognition sequence of the vitamin D receptor had been immobilized. Subsequently, the sample was added to the MALDI plate, and consequently, the same peptide map as that obtained by trypsin digestion of the sample in the solution was obtained as is the case with NFκB (FIGS. 16 and 17).

Series [3] deals with T1, NF-kB p50. Nature of the series: ELISA; on-chip ELISA; detected down to 1.0 ng/mL (DLC) and 0.33 ng/mL (GeneDia); 1% BSA, 10 mM HEPES pH 7.5, salmon sperm DNA, 2 mM DTT, room temperature; also fluorescence immunoassay on array. As to conditions: tags: Promega; chain copies: 2. Here is the method:
(§2) The plate was washed twice with the washing buffer, NFκB at various concentrations diluted with the binding buffer was added, and the plate was shaken at room temperature for one hour. The plate was washed three times with the washing buffer, anti-NFκB antibody diluted 2000 times with antibody diluting buffer was added, and the plate was shaken at room temperature for one hour. The plate was washed three times with the washing buffer, POD-labeled anti-rabbit IgG secondary antibody diluted 2000 times with the antibody diluting buffer was added, and the plate was shaken at room temperature for one hour. The plate was washed five times with the washing buffer, and subsequently absorbance at a wavelength of 450 nm based on the absorbance of TMBZ which was a color development substrate of POD was measured by a microplate reader.
(§3) In order to investigate an ELISA condition for NFκB, the double-stranded DNA comprising the element DNA sequence different in length and copy number were synthesized by the PCR method or a synthetic method, and analyzed. When PRD II-1 comprising one copy of the PRD II sequence was compared with PRD II-2, the immobilized PRD II-2 was more excellent in efficiency of trapping NFκB (FIG. 5). […]

The target of series [4] is T1, NF-kB p50. Put plainly: ELISA; trapping equivalent to or more than PRD II-2. The following applies: tags: Promega; chain copies: 2; label: 5'-FITC on bottom strand. Here is the method: as §2, §3
On the technique in general: An ELISA detects its analyte on a solid surface through an enzyme-linked reagent.

T1 sequence (P19838 1-433, one chain of several): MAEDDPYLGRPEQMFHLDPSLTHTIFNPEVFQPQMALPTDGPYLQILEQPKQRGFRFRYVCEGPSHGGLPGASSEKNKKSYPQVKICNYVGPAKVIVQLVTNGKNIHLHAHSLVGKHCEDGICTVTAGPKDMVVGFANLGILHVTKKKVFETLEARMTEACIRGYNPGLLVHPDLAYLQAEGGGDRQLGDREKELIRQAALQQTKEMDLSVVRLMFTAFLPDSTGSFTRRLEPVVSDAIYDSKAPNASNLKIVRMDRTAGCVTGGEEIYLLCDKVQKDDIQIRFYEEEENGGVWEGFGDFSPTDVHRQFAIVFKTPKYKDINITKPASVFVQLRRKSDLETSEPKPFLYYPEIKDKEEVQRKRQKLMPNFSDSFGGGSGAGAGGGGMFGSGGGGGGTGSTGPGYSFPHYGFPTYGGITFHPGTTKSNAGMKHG

B1: RARE (dsDNA)
DNA 1: GGGAGCTGAGTAAGGTCACCAGGAGGTCAATGCATGCAGGTCACCAGGAGGTCACATG
DNA 2: CATGTGACCTCCTGGTGACCTGCATGCATTGACCTCCTGGTGACCTTACTCAGCTCCC
modifications: 5'-NH2(CH2)12 on top strand, immobilized on chip
B1: the binding result with NF-kB p50 [1] is listed as “no binding”.

B2: TRE (dsDNA)
DNA 1: GGGAGCTGAGTAAGGTCATGACCTATGCATGCAGGTCATGACCTCATG
DNA 2: CATGAGGTCATGACCTGCATGCATAGGTCATGACCTTACTCAGCTCCC
modifications: 5'-NH2(CH2)12 on top strand, immobilized on chip
With B2, in the series with NF-kB p50 [1], the binding result is on record as “no binding”.

B3: CRE (dsDNA)
DNA 1: GGGAGCTGAGTATGACGTCAATGCATGCTGACGTCACATG
DNA 2: CATGTGACGTCAGCATGCATTGACGTCATACTCAGCTCCC
modifications: 5'-NH2(CH2)12 on top strand, immobilized on chip
Take B3: the binding result in the series with NF-kB p50 [1] is recorded as “no binding”.

B4: AP1 (dsDNA)
DNA 1: GGGAGCTGAGTATGACTCATATGCATGCTGACTCATCATG
DNA 2: CATGATGAGTCAGCATGCATATGAGTCATACTCAGCTCCC
modifications: 5'-NH2(CH2)12 on top strand, immobilized on chip
For B4, the binding result with NF-kB p50 [2] is “no binding”.

B5: VDRE (dsDNA)
DNA 1: GGGAGCTGAGTAAGGTCAAGGAGGTCAATGCATGCAGGTCAAGGAGGTCACATG
DNA 2: CATGTGACCTCCTTGACCTGCATGCATTGACCTCCTTGACCTTACTCAGCTCCC
modifications: 5'-NH2(CH2)12 on top strand, immobilized on chip
On to B5, for which the binding result in the series with Vitamin D receptor (VDR) is listed as “binds”; in the series with NF-kB p50 [1], “no binding”.

B6: PRD II (two copies) (dsDNA)
DNA 1: GGGAGCTGAGTAGGGAAATTCCATGCATGCGGGAAATTCCCATG
DNA 2: CATGGGAATTTCCCGCATGCATGGAATTTCCCTACTCAGCTCCC
modifications: 5'-NH2(CH2)12 on top strand, immobilized on chip
For B6, in the series with NF-kB p50 [3], the binding result is given as “binds”.

B7: IgkB (two copies) (dsDNA)
DNA 1: GGGAGCTGAGTAGGGGATCCCATGCATGCGGGGATCCCCATG
DNA 2: CATGGGGATCCCCGCATGCATGGGATCCCCTACTCAGCTCCC
modifications: 5'-NH2(CH2)12 on top strand, immobilized on chip
Turning to B7, the binding result with NF-kB p50 [4] is listed as “binds”.

The values are drawn from patent US20100323904, “Transcription chip” (published 2010).
